The text below walks through data of article PMC3953333, “Sterol Regulatory Element-Binding Proteins Are Regulators of the Rat Thyroid Peroxidase Gene in Thyroid Cells”.

Series [1] has as its target T1, nuclear SREBP-1c (nSREBP-1c) (rat, UniProt P56720-1 1-456).
T1 sequence: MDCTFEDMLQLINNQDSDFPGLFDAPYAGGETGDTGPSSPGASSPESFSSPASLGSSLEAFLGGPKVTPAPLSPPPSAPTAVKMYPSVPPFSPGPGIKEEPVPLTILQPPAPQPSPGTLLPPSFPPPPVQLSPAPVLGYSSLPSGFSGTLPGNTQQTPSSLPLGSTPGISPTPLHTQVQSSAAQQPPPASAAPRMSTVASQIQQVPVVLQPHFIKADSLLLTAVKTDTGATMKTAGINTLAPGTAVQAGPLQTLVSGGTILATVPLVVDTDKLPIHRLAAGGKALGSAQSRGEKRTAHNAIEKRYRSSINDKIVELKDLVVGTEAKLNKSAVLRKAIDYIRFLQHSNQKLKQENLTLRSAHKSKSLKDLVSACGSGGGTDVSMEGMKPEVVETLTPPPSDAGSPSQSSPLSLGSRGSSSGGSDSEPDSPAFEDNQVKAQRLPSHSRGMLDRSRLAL
Put plainly: EMSA; EMSA with DIG-labeled annealed oligonucleotides (Roche DIG Gel Shift Kit, 2nd Generation) and TNT T7 in vitro-translated proteins; buffer, salt, pH and temperature not stated (ref 19). The settings on record: protein: ivt, chain copies: 2, label: DIG end-label. In general terms: A gel shift assay detects complexes by their altered migration in electrophoresis.

The target of series [2] is T2, nuclear SREBP-2 (nSREBP-2) (rat, UniProt Q3T1I5 1-476).
T2 sequence: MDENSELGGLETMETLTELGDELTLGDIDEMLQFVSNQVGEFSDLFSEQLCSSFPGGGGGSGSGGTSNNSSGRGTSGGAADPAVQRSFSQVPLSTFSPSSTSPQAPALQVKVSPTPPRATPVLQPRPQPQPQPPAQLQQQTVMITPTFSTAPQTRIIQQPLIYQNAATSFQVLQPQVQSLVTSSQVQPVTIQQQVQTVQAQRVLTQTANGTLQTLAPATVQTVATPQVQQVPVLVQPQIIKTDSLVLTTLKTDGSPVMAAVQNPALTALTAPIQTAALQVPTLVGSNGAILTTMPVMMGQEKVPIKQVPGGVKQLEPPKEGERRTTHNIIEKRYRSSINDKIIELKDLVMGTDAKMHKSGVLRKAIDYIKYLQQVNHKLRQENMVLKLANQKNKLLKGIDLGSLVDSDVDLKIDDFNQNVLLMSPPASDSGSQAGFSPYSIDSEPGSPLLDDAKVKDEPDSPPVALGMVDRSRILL
The series is described as above. The settings on record: protein: ivt, chain copies: 2, label: DIG end-label.

Where [3] appears, read: 5' overhangs 4 nt (AGCT / TCGA).
Where [4] appears, read: 5' overhangs 4 nt (GATC / TCGA).

B1: rTPO III mut2 (dsDNA)
DNA 1: AGCTGATAATCAGAAAGTCGTATTAATACT
DNA 2: TCGAAGTATTAATACGACTTTCTGATTATC
Consider B1, for which the binding result in series [1] (setting [3]) and in series [2] (setting [3]) was “no binding” throughout.

B2: rTPO II (dsDNA)
DNA 1: AGCTTTGCAGTGGGGAAGAGATAA
DNA 2: TCGATTATCTCTTCCCCACTGCAA
On to B2, for which the binding result in series [1] (setting [3]) and in series [2] (setting [3]) was “no binding” throughout.

B3: rTPO VI mut6 (dsDNA)
DNA 1: AGCTTGTAACTCTCCTCAGGTGGGTCCTCCCAAGT
DNA 2: TCGAACTTGGGAGGACCCACCTGAGGAGAGTTACA
For B3, the binding result in series [1] (setting [3]) and in series [2] (setting [3]) was “binds” throughout.

B4: rTPO IV (dsDNA)
DNA 1: AGCTATACTGTGGGATGTACCATA
DNA 2: TCGATATGGTACATCCCACAGTAT
B4: the binding result in series [1] (setting [3]) was “binds”; in series [2] (setting [3]), “no binding”.

B5: rTPO V (dsDNA)
DNA 1: AGCTGTGGGATGTACCATAAATACCCAGG
DNA 2: TCGACCTGGGTATTTATGGTACATCCCAC
For B5, the binding result in series [1] (setting [3]) and in series [2] (setting [3]) was “no binding” each time.

B6: rTPO III mut1 (dsDNA)
DNA 1: AGCTGATAATCAGAAAGTCAGCAGTTCTAG
DNA 2: TCGACTAGAACTGCTGACTTTCTGATTATC
Take B6: the binding result in series [1] (setting [3]) and in series [2] (setting [3]) was “binds” each time.

B7: rTPO IVmut (dsDNA)
DNA 1: AGCTATACTGTGTTACTTACCATA
DNA 2: TCGATATGGTAAGTAACACAGTAT
Regarding B7, the binding result in series [1] (setting [3]) is “no binding”.

B8: rTPO VI mut3 (dsDNA)
DNA 1: AGCTCAGGCCTCTCCTCAGACTAATCCTCCCAAGT
DNA 2: TCGAACTTGGGAGGATTAGTCTGAGGAGAGGCCTG
For the molecule B8, the binding result in series [1] (setting [3]) and in series [2] (setting [3]) was “binds” in each case.

B9: rTPO VI mut5 (dsDNA)
DNA 1: AGCTCAGGCGGAAACTCAGGTGGGTCCTCCCAAGT
DNA 2: TCGAACTTGGGAGGACCCACCTGAGTTTCCGCCTG
As to B9, the binding result in series [1] (setting [3]) and in series [2] (setting [3]) was “binds” each time.

B10: rTPO III mut5 (dsDNA)
DNA 1: AGCTTCGTTTCAGAAAGTCAGCAGAATACT
DNA 2: TCGAAGTATTCTGCTGACTTTCTGAAACGA
With B10, the binding result in series [1] (setting [3]) and in series [2] (setting [3]) was “binds” each time.

B11: rTPO VI mut1 (dsDNA)
DNA 1: AGCTCAGGCCTCTCCTCAGGTGGGTCCTCATGGCT
DNA 2: TCGAAGCCATGAGGACCCACCTGAGGAGAGGCCTG
As to B11, the binding result in series [1] (setting [3]) and in series [2] (setting [3]) was “binds” throughout.

B12: rTPO III mut4 (dsDNA)
DNA 1: AGCTGATAAGATTCAAGTCAGCAGAATACT
DNA 2: TCGAAGTATTCTGCTGACTTGAATCTTATC
As for B12, the binding result in series [1] (setting [3]) and in series [2] (setting [3]) was “binds” in each case.

B13: rTPO VI mut4 (dsDNA)
DNA 1: AGCTCAGGCCTCTCAGATAGTGGGTCCTCCCAAGT
DNA 2: TCGAACTTGGGAGGACCCACTATCTGAGAGGCCTG
For B13, the binding result in series [1] (setting [3]) and in series [2] (setting [3]) was “no binding” each time.

B14: rTPO III (dsDNA)
DNA 1: AGCTGATAATCAGAAAGTCAGCAGAATACT
DNA 2: TCGAAGTATTCTGCTGACTTTCTGATTATC
As to B14, the binding result in series [1] (setting [3]) and in series [2] (setting [3]) was “binds” in each case.

B15: rTPO VI mut2 (dsDNA)
DNA 1: AGCTCAGGCCTCTCCTCAGGTGGGGTTGACCAAGT
DNA 2: TCGAACTTGGTCAACCCCACCTGAGGAGAGGCCTG
On to B15, for which the binding result in series [1] (setting [3]) and in series [2] (setting [3]) was “binds” in each case.

B16: rTPO I (dsDNA)
DNA 1: GATCTCTGGGGTTGCAGTGGGGAAGA
DNA 2: TCGATCTTCCCCACTGCAACCCCAGA
On to B16, for which the binding result in series [1] (setting [4]) and in series [2] (setting [4]) was “no binding” throughout.

B17: rTPO VI (dsDNA)
DNA 1: AGCTCAGGCCTCTCCTCAGGTGGGTCCTCCCAAGT
DNA 2: TCGAACTTGGGAGGACCCACCTGAGGAGAGGCCTG
Take B17: the binding result in series [1] (setting [3]) and in series [2] (setting [3]) was “binds” in each case.

B18: rTPO III mut3 (dsDNA)
DNA 1: AGCTGATAATCAGATTCGAAGCAGAATACT
DNA 2: TCGAAGTATTCTGCTTCGAATCTGATTATC
Take B18: the binding result in series [1] (setting [3]) and in series [2] (setting [3]) was “no binding” in each case.
